No end group written: not given here. *: point of attachment. 5‑TAMRA = 5-carboxytetramethylrhodamine label, CN(C)c1ccc2c(-c3ccc(C(=O)*)cc3C(=O)[O-])c3ccc(=[N+](C)C)cc-3oc2c1
Target: Purified Arp2/3 complex
Assay: fluorescence anisotropy, labelled ArpinA peptide titrated with purified Arp2/3 complex

Kd: 0.384 µM
Binder: {5‑TAMRA}-EIREQGDGAEDEEWDD [ArpinA peptide labelled with 5-TAMRA at the N-terminus]
